Assay results as given in article PMC12775136 (2025).

Biological target: T1, 3′hExofl (human, UniProt Q8IV48 1-349)
T1 chain: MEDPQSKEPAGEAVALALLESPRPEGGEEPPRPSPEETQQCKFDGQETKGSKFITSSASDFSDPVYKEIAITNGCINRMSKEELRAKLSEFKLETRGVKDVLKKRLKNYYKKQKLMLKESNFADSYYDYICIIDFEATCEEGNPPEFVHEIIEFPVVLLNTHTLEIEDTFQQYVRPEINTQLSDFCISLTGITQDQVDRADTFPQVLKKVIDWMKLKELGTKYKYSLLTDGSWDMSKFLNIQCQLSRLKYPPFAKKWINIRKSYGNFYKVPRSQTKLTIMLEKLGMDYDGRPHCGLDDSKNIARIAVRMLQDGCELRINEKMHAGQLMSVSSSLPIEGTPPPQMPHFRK
Assay: NMR

B1: UPF2-AL (domain or fragment)
chain: NDKDSKDSMTEGENLEEDEEEEEGGAETEEQSGNESEVNEPEEEEGSDNDDDEGEEEEEENTDYLTDSNKENETDEENTEVMIKGGGLKH
Kd: 200 µM
